The record followed here is PMC11006857, “Structure-guided functional suppression of AML-associated DNMT3A hotspot mutations” (Nature Communications, 2024).

In series [1] the target is DNMT3A^R882H/N879A protein (as used for size-exclusion chromatography) (human). In words: SEC; Superose 6 Increase 10/300 GL, 100 µL of 3 mg/mL protein, 4 °C, 20 mM Hepes pH 7.2, 250 mM NaCl, 5% glycerol, 5 mM DTT; elution volume against molecular weight standards. Background: SEC sorts molecules by how far they enter the pores of the column.
Series [2] deals with the molecule itself. Described as above.
Series [3] deals with the molecule itself. In words: crystal structure; DNMT3A MTase domain with S-adenosyl-homocysteine; sitting drop vapor diffusion, 0.2-0.4 M potassium sodium tartrate, 4 °C; homotetramer via RD and FF interfaces.

A word on the stoichiometry N: it is the number of molecules, sites or subunits per partner or assembly.

Turning to “DNMT3A^R882H/N879A protein (as used for size-exclusion chromatography) (domain or fragment)”, the stoichiometry N in series [1] turned out to be 4.

B1: MBP-tagged DNMT3A MTase domain R676K (domain or fragment, human, UniProt Q9Y6K1 628-912, looked up)
chain: AEKRKPIRVLSLFDGIATGLLVLKDLGIQVDRYIASEVCEDSITVGMVKHQGKIMYVGDVRSVTQKHIQEWGPFDLVIGGSPCNDLSIVNPARKGLYEGTGRLFFEFYRLLHDARPKEGDDRPFFWLFENVVAMGVSDKRDISRFLESNPVMIDAKEVSAAHRARYFWGNLPGMNRPLASTVNDKLELQECLEHGRIAKFSKVRTITTRSNSIKQGKDQHFPVFMNEKEDILWCTEMERVFGFPVHYTDVSNMSRLARQRLLGRSWSVPVIRHLFAPLKEYFACV
notes: human DNMT3A MTase domain, residues 628-912; source: E. coli BL21(DE3) RIL, purified; not shown: MBP, N-terminal, kept
As for B1, the binding result in series [2] is listed as “binds”.

B2: DNMT3A^R882H/N879A (crystallised form) (domain or fragment, human)
chain: AEKRKPIRVLSLFDGIATGLLVLKDLGIQVDRYIASEVCEDSITVGMVRHQGKIMYVGDVRSVTQKHIQEWGPFDLVIGGSPCNDLSIVNPARKGLYEGTGRLFFEFYRLLHDARPKEGDDRPFFWLFENVVAMGVSDKRDISRFLESNPVMIDAKEVSAAHRARYFWGNLPGMNRPLASTVNDKLELQECLEHGRIAKFSKVRTITTRSNSIKQGKDQHFPVFMNEKEDILWCTEMERVFGFPVHYTDVSAMSHLARQRLLGRSWSVPVIRHLFAPLKEYFACV
notes: human DNMT3A; the abstract speaks of crystal structures of the methyltransferase domain; The crystallisation methods name only R882H/R676K and R882C/R676K as mutants; probably residues 628-912 like the others; also called DNMT3A^N879A/R882H; N879A/R882H-mutated DNMT3A; source: E. coli BL21(DE3) RIL, purified
Regarding B2, the “stoichiometry N” value in series [3] is 4.

B3: MBP-tagged DNMT3A MTase domain M674T/R676K (domain or fragment, human, UniProt Q9Y6K1 628-912, looked up)
chain: AEKRKPIRVLSLFDGIATGLLVLKDLGIQVDRYIASEVCEDSITVGTVKHQGKIMYVGDVRSVTQKHIQEWGPFDLVIGGSPCNDLSIVNPARKGLYEGTGRLFFEFYRLLHDARPKEGDDRPFFWLFENVVAMGVSDKRDISRFLESNPVMIDAKEVSAAHRARYFWGNLPGMNRPLASTVNDKLELQECLEHGRIAKFSKVRTITTRSNSIKQGKDQHFPVFMNEKEDILWCTEMERVFGFPVHYTDVSNMSRLARQRLLGRSWSVPVIRHLFAPLKEYFACV
notes: as for B1
Consider B3, for which, in series [2], the binding result is “binds”.
